Measured values from publication PMC5231900 (Molecular Biology of the Cell, 2017).

What was measured:
Assay in all cases: pull-down
[1] = biological target: wild-type HOPS complex purified via Vps39-TAP (yeast, UniProt Q07468;P38959;P20795;P12868;Q03308;P27801)
[2] = biological target: wild-type HOPS complex purified via Vps41-TAP (yeast, UniProt P38959;Q07468;P20795;P12868;Q03308;P27801)
[3] = biological target: Vps41-Vps3-class C hybrid complex (yeast, UniProt P38959;P23643;P20795;P12868;Q03308;P27801)
[4] = biological target: wild-type Vps39-Vps11 complex (yeast, UniProt Q07468;P12868)

Measured: binding result

wild-type Vps39-Vps11 complex, sequence (Q07468 whole entry, chain 1 of 2): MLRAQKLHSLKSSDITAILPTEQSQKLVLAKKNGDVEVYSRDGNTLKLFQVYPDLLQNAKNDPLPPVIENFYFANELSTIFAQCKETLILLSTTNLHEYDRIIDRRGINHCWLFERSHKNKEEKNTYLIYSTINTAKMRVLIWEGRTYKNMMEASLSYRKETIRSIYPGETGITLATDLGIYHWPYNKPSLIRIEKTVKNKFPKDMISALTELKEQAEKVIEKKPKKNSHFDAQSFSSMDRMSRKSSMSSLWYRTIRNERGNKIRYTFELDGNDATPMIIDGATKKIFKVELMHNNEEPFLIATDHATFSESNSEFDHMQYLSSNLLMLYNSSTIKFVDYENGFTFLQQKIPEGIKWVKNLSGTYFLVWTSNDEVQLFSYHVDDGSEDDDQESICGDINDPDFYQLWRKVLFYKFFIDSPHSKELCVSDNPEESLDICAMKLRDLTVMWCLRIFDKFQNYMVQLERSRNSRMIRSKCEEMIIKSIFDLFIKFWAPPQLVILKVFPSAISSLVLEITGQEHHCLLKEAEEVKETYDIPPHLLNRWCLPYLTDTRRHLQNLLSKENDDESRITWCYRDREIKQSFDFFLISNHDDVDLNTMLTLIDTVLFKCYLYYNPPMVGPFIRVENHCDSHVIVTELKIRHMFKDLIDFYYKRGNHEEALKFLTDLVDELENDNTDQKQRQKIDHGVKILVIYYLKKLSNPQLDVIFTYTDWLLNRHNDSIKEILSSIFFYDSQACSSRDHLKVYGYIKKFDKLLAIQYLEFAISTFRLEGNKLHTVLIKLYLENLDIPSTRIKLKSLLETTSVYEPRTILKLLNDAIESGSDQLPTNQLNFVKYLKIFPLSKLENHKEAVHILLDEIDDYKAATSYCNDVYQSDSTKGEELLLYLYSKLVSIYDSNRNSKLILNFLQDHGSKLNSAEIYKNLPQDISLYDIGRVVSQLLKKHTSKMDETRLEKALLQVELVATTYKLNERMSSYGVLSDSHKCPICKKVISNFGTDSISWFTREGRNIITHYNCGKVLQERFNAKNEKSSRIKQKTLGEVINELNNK
wild-type Vps39-Vps11 complex, sequence (P12868 whole entry, chain 2 of 2): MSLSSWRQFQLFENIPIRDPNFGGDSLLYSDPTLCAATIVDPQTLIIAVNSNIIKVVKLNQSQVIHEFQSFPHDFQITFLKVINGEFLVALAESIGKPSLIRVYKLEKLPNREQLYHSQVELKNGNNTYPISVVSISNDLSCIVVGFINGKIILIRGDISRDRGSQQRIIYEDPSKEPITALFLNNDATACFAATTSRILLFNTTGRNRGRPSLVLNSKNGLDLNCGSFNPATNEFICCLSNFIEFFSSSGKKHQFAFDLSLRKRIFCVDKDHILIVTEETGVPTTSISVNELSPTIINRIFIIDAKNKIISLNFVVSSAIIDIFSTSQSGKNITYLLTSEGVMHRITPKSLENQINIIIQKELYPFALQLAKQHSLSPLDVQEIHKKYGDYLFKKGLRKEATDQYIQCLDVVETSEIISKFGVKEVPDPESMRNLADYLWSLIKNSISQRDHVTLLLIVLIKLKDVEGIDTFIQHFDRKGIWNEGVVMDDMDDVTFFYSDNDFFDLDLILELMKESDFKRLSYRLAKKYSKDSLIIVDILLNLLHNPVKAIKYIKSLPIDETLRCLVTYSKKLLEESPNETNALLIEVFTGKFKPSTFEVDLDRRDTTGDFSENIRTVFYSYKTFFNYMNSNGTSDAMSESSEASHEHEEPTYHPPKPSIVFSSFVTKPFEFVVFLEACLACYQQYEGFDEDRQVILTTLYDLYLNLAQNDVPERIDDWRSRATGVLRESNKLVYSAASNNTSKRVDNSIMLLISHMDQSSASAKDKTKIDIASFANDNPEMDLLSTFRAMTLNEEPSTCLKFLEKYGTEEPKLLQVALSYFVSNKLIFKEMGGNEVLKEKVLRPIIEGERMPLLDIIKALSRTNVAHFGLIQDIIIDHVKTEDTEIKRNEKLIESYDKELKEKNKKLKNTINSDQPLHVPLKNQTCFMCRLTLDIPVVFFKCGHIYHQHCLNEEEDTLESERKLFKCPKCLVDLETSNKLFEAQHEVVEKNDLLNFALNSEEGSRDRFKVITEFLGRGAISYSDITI

B1: GST-Ypt7 (natural protein)
chain: MSSRKKNILKVIILGDSGVGKTSLMHRYVNDKYSQQYKATIGADFLTKEVTVDGDKVATMQVWDTAGQERFQSLGVAFYRGADCCVLVYDVTNASSFENIKSWRDEFLVHANVNSPETFPFVILGNKIDAEESKKIVSEKSAQELAKSLGDIPLFLTSAKNAINVDTAFEEIARSALQQNQADTEAFEDDYNDAINIRLDGENNSCSC
binds: [1] | [2] | [3] | [4]
